Experiments:
[1] = biological target: T1, human Dkk-1 (Dickkopf-related protein 1) (human, UniProt O94907 32-266); test: SPR (Biacore 2000), antibody captured on protein A, antigen as analyte, 1:1 model, average of n=3
T1 construct: Soluble analyte in SPR; recombinant hDkk-1 in the reporter assay; also called hDkk-1; recombinant hDkk-1
T1 sequence (looked up): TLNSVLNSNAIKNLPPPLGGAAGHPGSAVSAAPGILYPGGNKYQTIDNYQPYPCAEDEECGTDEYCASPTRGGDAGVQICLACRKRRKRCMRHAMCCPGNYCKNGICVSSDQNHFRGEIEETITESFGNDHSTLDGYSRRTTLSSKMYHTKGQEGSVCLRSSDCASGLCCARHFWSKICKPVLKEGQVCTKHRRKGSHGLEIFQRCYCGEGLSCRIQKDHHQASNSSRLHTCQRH
Method: (§1) A CM5 chip (Biacore, pin. BR-100530) containing immobilized protein A (generated using standard NHS-EDC amine coupling) on all four flow cells (Fc) is used to employ a capture methodology. Antibody samples are prepared at 0.2-10 μg/mL by dilution into running buffer. Human Dkk-1 samples are prepared at final concentrations of 100 nM, 50 nM, 25 nM, 12.5 nM, 6.25 nM, 3.125 nM, 1.5625 nM, 0.78125 nM, 0.390625 nM, 0.1953125 nM, and 0 (blank) nM by dilution into running buffer. Human RANKL are prepared at final concentrations of 100 nM, 50 nM, 25 nM, 12.5 nM, 6.25 nM, 3.125 nM, 1.5625 nM, 0.78125 nM, 0.390625 nM, 0.1953125 nM, and 0 (blank) nM by dilution into running buffer.
(§2) Each analysis cycle consists of (1) capturing antibody samples on separate flow cells (Fc2 and Fc3); (2) injection of each human Dkk-1 concentration over all Fc at 50 μL/min for 300 seconds followed by return to buffer flow for 1200 seconds to monitor dissociation phase; (3) injection of each human RANKL concentration over all Fc at 100 μL/min for 150 seconds followed by return to buffer flow for 1800 seconds to monitor dissociation phase; (4) regeneration of chip surfaces with injection of 10 mM glycine, pH 1.5, for 120 seconds at 5 μL/min over all cells; and (5) equilibration of chip surfaces with a 10 μL (60-sec) injection of HBS-EP+. Data are processed using standard double-referencing and fit to a 1:1 binding model using Biacore 2000 Evaluation software, version 2.0.3, to determine the association rate (kₒₙ, M⁻¹s⁻¹ units), dissociation rate (koff, s⁻¹ units), and Rₘₐₓ (RU units). The equilibrium dissociation constant (KD) is calculated from the relationship KD=koff/kₒₙ, and is in molar units.

[2] = biological target: T1, human Dkk-1 (Dickkopf-related protein 1); test: cell-based or functional assay
[3] = biological target: T2, human RANKL (receptor activator of nuclear factor kappa-B ligand) (human, UniProt O14788 140-317, limits assumed); test: cell-based or functional assay
T2 sequence (looked up): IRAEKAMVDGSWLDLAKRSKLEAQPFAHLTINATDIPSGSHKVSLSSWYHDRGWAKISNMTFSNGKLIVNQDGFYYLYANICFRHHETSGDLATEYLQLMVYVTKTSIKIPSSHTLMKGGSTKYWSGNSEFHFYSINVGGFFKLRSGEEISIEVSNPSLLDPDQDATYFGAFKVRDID

[4] = biological target: T2, human RANKL (receptor activator of …); test: SPR (Biacore 2000), antibody captured on protein A, antigen as analyte, 1:1 model, average of n=5
Method: as §1, §2

B1: exemplified bispecific antibody compound of Table 1 (anti-Dkk-1 IgG4 mAb with anti-RANKL scFv linked at the C-terminus of each heavy chain) (bispecific antibody)
heavy: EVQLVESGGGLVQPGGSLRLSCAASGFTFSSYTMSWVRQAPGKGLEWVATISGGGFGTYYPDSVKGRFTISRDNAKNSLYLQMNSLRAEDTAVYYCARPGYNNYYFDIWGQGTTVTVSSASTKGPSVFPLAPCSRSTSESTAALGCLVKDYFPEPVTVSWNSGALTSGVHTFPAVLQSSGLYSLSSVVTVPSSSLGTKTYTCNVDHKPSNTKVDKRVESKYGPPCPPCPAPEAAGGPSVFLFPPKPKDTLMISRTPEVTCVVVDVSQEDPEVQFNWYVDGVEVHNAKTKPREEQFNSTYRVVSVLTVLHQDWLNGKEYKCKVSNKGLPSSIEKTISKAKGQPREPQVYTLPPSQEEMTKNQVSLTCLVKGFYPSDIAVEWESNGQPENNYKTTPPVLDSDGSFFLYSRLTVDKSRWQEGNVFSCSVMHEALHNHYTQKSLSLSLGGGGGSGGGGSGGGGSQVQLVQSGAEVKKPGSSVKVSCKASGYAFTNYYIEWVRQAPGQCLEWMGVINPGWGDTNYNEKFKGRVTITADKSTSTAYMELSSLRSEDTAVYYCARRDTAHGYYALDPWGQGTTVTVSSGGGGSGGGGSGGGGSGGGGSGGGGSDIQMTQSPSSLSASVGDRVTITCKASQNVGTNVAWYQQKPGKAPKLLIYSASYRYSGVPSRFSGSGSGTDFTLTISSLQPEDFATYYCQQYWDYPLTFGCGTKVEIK
light: EIVLTQSPATLSLSPGERATLSCHASDSISNSLHWYQQKPGQAPRLLIYYARQSIQGIPARFSGSGSGTDFTLTISSLEPEDFAVYYCQQSESWPLHFGGGTKVEIKRTVAAPSVFIFPPSDEQLKSGTASVVCLLNNFYPREAKVQWKVDNALQSGNSQESVTEQDSKDSTYSLSSTLTLSKADYEKHKVYACEVTHQGLSSPVTKSFNRGEC
modifications: glycosylated at asparagine residue 296 of SEQ ID NO: 1
notes: also called Exemplified Bispecific Ab
B1 was tested, and the Kd [1] was 0.0357 nM, the koff [1] was 6.55e-05 s⁻¹ and the kon [1] was 1.83e+06 M⁻¹ s⁻¹. The “EC50, restoration of Wnt3a-induced TCF/LEF luciferase luminescence in MC3T3E1/Topflash cells” value [2] was 5.3 nM, the “IC50, reduction of RANKL-induced NF-kB driven luciferase luminescence in HEK293 cells expressing human RANK” value [3] was 1.2 nM and the Kd [4] was 0.0874 nM. For the same binder, the koff [4] was 4.2e-05 s⁻¹ and the kon [4] was 530000 M⁻¹ s⁻¹.

B2: Dkk-1 neutralizing antibody (a Dkk-1 antibody having an IgG4 backbone and the same heavy and light chain variable region sequences as the mAb portion of the … (antibody, V domains shown)
VH: EVQLVESGGGLVQPGGSLRLSCAASGFTFSSYTMSWVRQAPGKGLEWVATISGGGFGTYYPDSVKGRFTISRDNAKNSLYLQMNSLRAEDTAVYYCARPGYNNYYFDIWGQGTTVTVSS
VL: EIVLTQSPATLSLSPGERATLSCHASDSISNSLHWYQQKPGQAPRLLIYYARQSIQGIPARFSGSGSGTDFTLTISSLEPEDFAVYYCQQSESWPLHFGGGTKVEIK
With B2 the “EC50, restoration of Wnt3a-induced TCF/LEF luciferase luminescence in MC3T3E1/Topflash cells” value [2] was 6.61 nM.
